Results reported in patent publication US20260055154A1 (CHENGDU AODA BIOTECHNOLOGY, published 2026).
Starred links: 1 amine or outer side, 2 acyl side, 3 side chain; linkers in the order of their positions; H or OH if unused. Non-standard residues stand in square brackets, D forms with d. Groups on a side chain read outwards from the residue. No end group written: not given here. *: point of attachment. C20 diacid = O=C(O)CCCCCCCCCCCCCCCCCCC(=O)*; γGlu = O=C(O)[C@H](CCC(=O)[*:2])N[*:1]; AEEA = NCCOCCOCC(=O)O; Aib = CC(C)(N)C(=O)O

Tests used:
[1] = molecular target: glucagon-like peptide-1 (GLP-1) receptor; assay: cell-based or functional assay
glucagon (Gcg) receptor = assay: cell-based or functional assay

| Binder | Relative biological activity (cAMP chemiluminescence, RLU, CHO-K1 cells stably expressing GLP-1R; relative to OXM3) [1] | Biological activity (%) (cAMP chemiluminescence, RLU, CHO-K1 cells stably expressing GcgR; relative to OXM3) (glucagon (Gcg) receptor) |
| --- | --- | --- |
| H[Aib]QGTFTSDYSKYLDEKKAK([PEG5CH2CO-γGlu-C20 diacid])EFVEWLLEGGPSSGAPPPS-NH2 [Compound 2] | 260% | 86.9% |
| H[Aib]QGTFTSDYSKYLDEKKAKEFVEWLLEGGPSSGAPPPS-NH2 (not fully specified (residue 20)) [Compound 3] | 158% | 94.2% |
| H[Aib]QGTFTSDYSKYLDEKKAK([AEEA-AEEA-γGlu-C20 diacid])EFVEWLLEGGPSSGAPPPS-NH2 [Compound 1] | 188% | 90.5% |
| H[Aib]QGTFTSDYSKYLDEKKAK([Gly-Gly-Glu-Gly-Glu-Gly-γGlu-C20 diacid])EFVEWLLEGGPSSGAPPPS-NH2 [Compound 4] | 116% | 49.6% |
